Assay results: publication PMC8133684, “The URL1–ROC5–TPL2 transcriptional repressor complex represses the ACL1 gene to modulate leaf rolling in rice”

T1: GST-URL1 (ROC8) (Oryza sativa L., UniProt Q69T58 1-710)
T1 sequence: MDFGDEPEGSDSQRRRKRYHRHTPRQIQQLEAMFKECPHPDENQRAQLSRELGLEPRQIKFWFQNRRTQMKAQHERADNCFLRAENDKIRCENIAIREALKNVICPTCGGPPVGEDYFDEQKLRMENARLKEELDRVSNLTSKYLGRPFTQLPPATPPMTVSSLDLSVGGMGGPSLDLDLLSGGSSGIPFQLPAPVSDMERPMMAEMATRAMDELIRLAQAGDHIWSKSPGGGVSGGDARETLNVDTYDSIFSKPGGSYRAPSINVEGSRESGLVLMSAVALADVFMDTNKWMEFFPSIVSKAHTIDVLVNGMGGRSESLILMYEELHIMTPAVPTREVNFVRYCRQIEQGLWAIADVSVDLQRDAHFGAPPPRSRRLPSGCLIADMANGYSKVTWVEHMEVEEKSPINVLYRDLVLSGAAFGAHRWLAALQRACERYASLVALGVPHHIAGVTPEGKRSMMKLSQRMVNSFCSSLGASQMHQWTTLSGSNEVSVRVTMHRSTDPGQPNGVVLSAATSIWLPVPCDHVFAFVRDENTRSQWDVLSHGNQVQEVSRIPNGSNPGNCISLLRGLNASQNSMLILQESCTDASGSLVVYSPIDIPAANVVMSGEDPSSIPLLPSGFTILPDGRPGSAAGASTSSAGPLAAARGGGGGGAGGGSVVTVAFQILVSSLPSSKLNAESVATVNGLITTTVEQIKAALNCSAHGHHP


Assays:
[1] = target: T1, GST-URL1 (ROC8); experiment: EMSA; LightShift Chemiluminescent EMSA Kit; buffer, salt, pH and temperature not stated; details: protein: recombinant; tags: N-terminal GST (pCold-GST); chain copies: 2; label: 3' biotin; blunt
[2] = target: T1, GST-URL1 (ROC8); experiment: competition; 100-, 300-, 1000-fold excess vs labeled L1-box I probe; LightShift Chemiluminescent EMSA Kit; buffer, salt, pH and temperature not stated; details: protein: recombinant; tags: N-terminal GST (pCold-GST); chain copies: 2; blunt
[3] = target: T1, GST-URL1 (ROC8); experiment: competition; 100-, 300-, 1000-fold excess vs labeled L1-box II probe; LightShift Chemiluminescent EMSA Kit; buffer, salt, pH and temperature not stated; details: protein: recombinant; tags: N-terminal GST (pCold-GST); chain copies: 2; blunt

Binder	binding result [1]	other results
mACL1 L1-box II (L1 box deleted) (dsDNA) DNA 1: TTATCATAAAAGAAACTATAATATTAACTTACATTACTTTAAGGCAA DNA 2: TTGCCTTAAAGTAATGTAAGTTAATATTATAGTTTCTTTTATGATAA	no binding	
ACL1 L1-box I unlabeled competitor (dsDNA) DNA 1: CCGACTAATGGCAATATATACGTGCAAAGATACATTTATATACCATATCCTGTACTAAGCAATAACCTA DNA 2: TAGGTTATTGCTTAGTACAGGATATGGTATATAAATGTATCTTTGCACGTATATATTGCCATTAGTCGG		binding result [2]: binds
mACL1 L1-box I (L1 box deleted) (dsDNA) DNA 1: ACCGACTAATGGCAATATAAAGATATACCATATCCTGTACTAAGCAATAACCTA DNA 2: TAGGTTATTGCTTAGTACAGGATATGGTATATCTTTATATTGCCATTAGTCGGT	no binding	
ACL1 L1-box II unlabeled competitor (dsDNA) DNA 1: TTATCATAAAAGAAACTATAATATTAACTTATACATTTACATATTTATACTAAATTTTTAAATAAGGCAA DNA 2: TTGCCTTATTTAAAAATTTAGTATAAATATGTAAATGTATAAGTTAATATTATAGTTTCTTTTATGATAA		binding result [3]: binds
